Experiment [1] deals with recombinant Arabidopsis thaliana Nfu2 without the plastidial targeting sequence (Arabidopsis thaliana) (UniProt Q93W20). The experiment can be described thus: SEC. Background: In gel filtration, larger molecules generally elute earlier.
The target is the same in experiment [2]. The experiment can be described thus: SEC. The source holds these as a separate data set.

Where “and” joins values, the source holds several entries; their conditions need not be identical. Equal entries are not always repeated. Where two headings read alike, the source gives them in different places.

As a reminder, the stoichiometry N is the number of molecules, sites or subunits per partner or assembly. In the case of “recombinant Arabidopsis thaliana Nfu2 without the plastidial targeting sequence (from UniProt Q93W20 73-235) (natural protein)”, the stoichiometry N was 2 in experiment [1]; 4 and 2 in experiment [2].

Values taken from paper PMC3819817.
